Assay results from patent US20200289560A1 (RUPRECHT KARLS UNIVERSIT T HEIDELBERG, published 2020).

Biological target: T1, human pyruvate kinase M2 (PKM2) (human, UniProt P14618 1-531)
T1 construct: also called tetrameric PK M2; human PK M2
Test: ultrafiltration (Amicon 30k) of equimolar 2 µM human PK M2 and 2 µM human HMGB1, Western blot of filtrate and retentate
Experimental: Ultrafiltration of the PK M2-HMGB1 complex: equimolar amounts of HMGB1 and PKM2 were mixed in a final volume of 300 μl and filtrated (14000 g, 4° C.) to a final volume of 15 μl in an Amicon Ultra 0.5 ml 30k device (Merck-Millipore, Darmstadt, Germany). The retentate was adjusted to the original volume after centrifugation. Then filtrate and retentate were analyzed by Western Blot. For controls HMGB1 and PKM2 were also analyzed alone. Pure HMGB1 (2 μM) suited as a negative control.

T1 sequence (P14618 whole entry): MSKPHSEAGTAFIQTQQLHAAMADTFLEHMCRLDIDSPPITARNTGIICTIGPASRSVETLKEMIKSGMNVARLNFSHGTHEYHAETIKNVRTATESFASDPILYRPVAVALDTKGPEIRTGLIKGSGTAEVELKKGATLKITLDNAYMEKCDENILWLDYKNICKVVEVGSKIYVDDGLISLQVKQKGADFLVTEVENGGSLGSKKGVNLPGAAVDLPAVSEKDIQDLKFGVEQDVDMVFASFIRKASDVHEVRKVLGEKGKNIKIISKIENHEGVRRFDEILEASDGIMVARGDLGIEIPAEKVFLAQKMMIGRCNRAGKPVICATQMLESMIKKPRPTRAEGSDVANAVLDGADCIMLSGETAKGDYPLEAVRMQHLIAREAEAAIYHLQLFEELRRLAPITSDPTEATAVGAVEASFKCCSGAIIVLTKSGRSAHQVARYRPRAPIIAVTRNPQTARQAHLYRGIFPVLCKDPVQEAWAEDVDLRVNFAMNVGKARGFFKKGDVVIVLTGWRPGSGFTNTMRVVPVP

- binding result: binds
B1: recombinant human HMGB1 protein (High Mobility Group Box 1 polypeptide) (other)
chain: MGKGDPKKPRGKMSSYAFFVQTCREEHKKKHPDASVNFSEFSKKCSERWKTMSAKEKGKFEDMAKADKARYEREMKTYIPPKGETKKKFKDPNAPKRPPSAFFLFCSEYRPKIKGEHPGLSIGDVAKKLGEMWNNTAADDKQPYEKKAAKLKEKYEKDIAAYRAKGKPDAAKKGVVKAEKSKKKKEEEEDEEDEEDEEEEEDEEDEDEEEDDDDE
notes: also called rhHMGB1; 125I-labelled HMGB1
